Assays:
Fer (mouse) = test: phosphorylation enrichment, bacterial display (enrichment ratio); higher = better substrate or ligand; peptides without Tyr show the background
c-Src = test: as above
EPHB1 = EPHB1 (UniProt P54762); test: as above
AncSZ = test: as above
Fyn = Fyn (UniProt P06241); test: as above
MERTK = MERTK (UniProt Q12866); test: as above
FGFR1 = FGFR1 (UniProt P11362); test: as above
Jak2 = Jak2 (UniProt O60674); test: as above
c-Abl (mouse) = test: as above
EPHB2 = EPHB2 (UniProt P29323); test: as above
Fes = Fes (UniProt P07332); test: as above
Hck = Hck (UniProt P08631); test: as above
FGFR3 = FGFR3 (UniProt P22607); test: as above
SHP2-C SH2 = test: SH2 binding enrichment of the phosphorylated peptide, bacterial display (enrichment ratio); higher = better substrate or ligand; peptides without Tyr show the background
c-Src SH2 = test: as above
Grb2 SH2 = Grb2 SH2 (UniProt P62993); test: as above
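Throughout, for SH2 binding enrichment of the phosphorylated peptide, bacterial display: peptide library displayed on the E. coli surface as eCPX fusions, selected cells deep-sequenced, score is each peptide's frequency after selection divided by its frequency in the input.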
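Throughout, for phosphorylation enrichment, bacterial display: 11-residue human phosphosite peptides and single-mutation variants displayed on the E. coli surface, counted by deep sequencing, each peptide's frequency after selection divided by its frequency in the unselected input library; frequency after pTyr selection over input frequency; kinase dosed for 20-30% of maximal phosphorylation in three min.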

Sequence of FGFR1 (P11362 whole entry, looked up): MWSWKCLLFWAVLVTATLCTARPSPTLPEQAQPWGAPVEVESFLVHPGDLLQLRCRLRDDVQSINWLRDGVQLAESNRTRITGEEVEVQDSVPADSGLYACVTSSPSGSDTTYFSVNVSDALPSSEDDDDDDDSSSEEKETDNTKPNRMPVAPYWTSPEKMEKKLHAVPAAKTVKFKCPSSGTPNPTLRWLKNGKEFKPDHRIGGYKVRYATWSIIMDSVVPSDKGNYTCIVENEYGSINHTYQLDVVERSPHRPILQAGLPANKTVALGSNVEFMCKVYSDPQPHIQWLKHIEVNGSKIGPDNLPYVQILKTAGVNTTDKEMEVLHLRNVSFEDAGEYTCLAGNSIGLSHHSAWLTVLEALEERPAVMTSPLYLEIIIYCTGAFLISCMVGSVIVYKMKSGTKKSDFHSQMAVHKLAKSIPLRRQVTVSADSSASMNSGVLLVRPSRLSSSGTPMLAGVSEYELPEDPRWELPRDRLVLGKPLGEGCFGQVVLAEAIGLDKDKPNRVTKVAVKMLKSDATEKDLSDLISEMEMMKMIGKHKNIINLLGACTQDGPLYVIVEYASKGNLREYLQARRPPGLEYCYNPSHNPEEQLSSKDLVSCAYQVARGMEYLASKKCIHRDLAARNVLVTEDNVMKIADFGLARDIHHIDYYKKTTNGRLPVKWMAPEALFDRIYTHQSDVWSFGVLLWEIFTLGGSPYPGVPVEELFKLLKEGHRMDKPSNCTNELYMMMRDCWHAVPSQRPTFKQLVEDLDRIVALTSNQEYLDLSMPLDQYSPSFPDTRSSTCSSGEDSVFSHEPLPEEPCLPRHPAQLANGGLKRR
Sequence of FGFR3 (P22607 whole entry, looked up): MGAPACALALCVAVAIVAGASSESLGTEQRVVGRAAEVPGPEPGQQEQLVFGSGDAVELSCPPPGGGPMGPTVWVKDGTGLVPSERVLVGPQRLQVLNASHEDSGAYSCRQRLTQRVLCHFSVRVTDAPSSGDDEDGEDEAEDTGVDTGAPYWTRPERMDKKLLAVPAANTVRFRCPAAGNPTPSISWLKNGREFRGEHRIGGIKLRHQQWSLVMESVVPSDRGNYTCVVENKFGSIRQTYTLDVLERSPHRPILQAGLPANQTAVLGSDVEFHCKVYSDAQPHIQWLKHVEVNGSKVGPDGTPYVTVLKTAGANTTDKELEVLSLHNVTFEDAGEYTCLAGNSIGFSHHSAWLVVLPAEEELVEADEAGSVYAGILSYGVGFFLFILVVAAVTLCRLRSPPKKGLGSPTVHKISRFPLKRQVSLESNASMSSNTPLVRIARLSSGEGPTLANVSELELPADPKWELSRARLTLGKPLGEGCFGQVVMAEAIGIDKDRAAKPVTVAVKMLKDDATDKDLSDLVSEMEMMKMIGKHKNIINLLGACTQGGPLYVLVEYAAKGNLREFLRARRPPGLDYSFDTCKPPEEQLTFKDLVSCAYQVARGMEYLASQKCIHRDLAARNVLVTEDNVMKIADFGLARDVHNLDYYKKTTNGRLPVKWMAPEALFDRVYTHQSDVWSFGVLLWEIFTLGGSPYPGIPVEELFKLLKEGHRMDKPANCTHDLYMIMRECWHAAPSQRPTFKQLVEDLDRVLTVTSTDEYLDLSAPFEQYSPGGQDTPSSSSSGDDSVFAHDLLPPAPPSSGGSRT
Sequence of Hck (P08631 whole entry, looked up): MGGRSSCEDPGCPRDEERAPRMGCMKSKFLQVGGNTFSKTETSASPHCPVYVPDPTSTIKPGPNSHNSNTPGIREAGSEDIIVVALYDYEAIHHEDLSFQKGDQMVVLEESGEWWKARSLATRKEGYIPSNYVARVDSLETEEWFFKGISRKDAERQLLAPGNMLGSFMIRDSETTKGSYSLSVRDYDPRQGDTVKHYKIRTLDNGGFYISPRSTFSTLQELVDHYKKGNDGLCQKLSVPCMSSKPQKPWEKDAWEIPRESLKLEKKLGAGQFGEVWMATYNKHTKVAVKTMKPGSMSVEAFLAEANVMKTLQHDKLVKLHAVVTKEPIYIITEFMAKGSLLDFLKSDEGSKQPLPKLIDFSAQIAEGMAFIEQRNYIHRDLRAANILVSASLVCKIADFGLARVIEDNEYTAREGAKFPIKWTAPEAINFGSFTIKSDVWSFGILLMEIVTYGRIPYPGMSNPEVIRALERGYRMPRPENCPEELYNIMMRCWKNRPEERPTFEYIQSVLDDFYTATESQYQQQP
Sequence of EPHB1 (P54762 whole entry, looked up): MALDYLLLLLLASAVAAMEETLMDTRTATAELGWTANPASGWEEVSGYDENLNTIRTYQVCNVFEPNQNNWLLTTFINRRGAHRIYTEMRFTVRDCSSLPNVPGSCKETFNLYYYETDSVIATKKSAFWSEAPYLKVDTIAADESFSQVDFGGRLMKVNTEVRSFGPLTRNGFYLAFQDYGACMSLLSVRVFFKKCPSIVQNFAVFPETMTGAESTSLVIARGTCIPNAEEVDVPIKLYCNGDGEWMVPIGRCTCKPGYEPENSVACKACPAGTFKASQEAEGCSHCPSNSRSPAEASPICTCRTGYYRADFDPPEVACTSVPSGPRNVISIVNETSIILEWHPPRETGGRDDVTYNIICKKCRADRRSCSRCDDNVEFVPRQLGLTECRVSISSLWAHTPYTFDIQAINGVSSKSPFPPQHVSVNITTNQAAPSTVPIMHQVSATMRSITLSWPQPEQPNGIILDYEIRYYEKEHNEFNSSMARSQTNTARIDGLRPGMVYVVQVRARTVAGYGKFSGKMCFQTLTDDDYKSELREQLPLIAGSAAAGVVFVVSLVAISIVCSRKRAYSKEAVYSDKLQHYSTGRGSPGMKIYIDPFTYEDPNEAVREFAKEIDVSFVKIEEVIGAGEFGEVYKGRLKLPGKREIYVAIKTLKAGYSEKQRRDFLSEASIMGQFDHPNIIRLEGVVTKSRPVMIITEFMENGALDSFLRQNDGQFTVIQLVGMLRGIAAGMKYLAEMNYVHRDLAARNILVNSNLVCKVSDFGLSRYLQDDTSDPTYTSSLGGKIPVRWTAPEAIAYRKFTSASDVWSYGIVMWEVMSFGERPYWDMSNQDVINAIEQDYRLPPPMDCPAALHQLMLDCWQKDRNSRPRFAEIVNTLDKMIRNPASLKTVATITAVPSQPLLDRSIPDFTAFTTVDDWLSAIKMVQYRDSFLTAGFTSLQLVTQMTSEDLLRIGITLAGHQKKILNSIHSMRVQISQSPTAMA
Sequence of Fes (P07332 whole entry, looked up): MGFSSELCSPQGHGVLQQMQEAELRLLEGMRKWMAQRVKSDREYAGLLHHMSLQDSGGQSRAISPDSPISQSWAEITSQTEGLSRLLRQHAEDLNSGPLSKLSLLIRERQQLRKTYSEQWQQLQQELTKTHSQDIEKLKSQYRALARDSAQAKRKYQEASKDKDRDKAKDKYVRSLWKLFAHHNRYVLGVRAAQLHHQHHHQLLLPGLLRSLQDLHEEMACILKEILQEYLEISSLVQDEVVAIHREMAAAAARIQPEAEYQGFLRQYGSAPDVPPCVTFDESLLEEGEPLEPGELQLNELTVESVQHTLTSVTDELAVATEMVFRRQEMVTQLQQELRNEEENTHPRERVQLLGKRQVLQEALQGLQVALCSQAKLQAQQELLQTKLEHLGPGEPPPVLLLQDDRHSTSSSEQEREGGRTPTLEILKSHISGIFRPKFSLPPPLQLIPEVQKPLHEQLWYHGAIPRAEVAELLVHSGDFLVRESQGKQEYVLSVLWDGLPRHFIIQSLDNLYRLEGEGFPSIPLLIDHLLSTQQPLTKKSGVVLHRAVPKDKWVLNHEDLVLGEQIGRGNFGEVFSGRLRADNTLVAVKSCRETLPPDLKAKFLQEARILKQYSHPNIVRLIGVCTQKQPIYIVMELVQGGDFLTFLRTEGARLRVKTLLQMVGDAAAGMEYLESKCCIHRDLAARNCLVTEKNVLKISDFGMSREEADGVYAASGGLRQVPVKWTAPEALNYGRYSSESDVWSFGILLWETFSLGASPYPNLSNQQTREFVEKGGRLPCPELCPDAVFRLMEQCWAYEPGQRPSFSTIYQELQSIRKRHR
Sequence of Fyn (P06241 whole entry, looked up): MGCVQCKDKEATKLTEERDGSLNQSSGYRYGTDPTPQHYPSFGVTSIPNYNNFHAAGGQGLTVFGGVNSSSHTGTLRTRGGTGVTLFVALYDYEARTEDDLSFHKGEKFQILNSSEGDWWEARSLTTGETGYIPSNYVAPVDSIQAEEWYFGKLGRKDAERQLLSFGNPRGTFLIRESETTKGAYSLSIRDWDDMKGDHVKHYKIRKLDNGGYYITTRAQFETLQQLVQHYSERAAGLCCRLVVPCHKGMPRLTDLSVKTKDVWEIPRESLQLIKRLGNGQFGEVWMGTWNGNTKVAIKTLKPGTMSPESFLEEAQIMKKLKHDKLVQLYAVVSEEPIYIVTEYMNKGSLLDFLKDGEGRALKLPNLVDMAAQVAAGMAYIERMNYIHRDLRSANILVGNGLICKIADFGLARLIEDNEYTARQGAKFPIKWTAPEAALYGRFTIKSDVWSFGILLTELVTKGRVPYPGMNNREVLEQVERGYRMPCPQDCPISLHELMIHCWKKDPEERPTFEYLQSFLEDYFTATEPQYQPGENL

Row | SH2 binding enrichment (SHP2-C SH2) | SH2 binding enrichment (c-Src SH2) | SH2 binding enrichment (Grb2 SH2) | Sequence | phosphorylation enrichment (Fer (mouse)) | phosphorylation enrichment (c-Src) | phosphorylation enrichment (EPHB1) | phosphorylation enrichment (AncSZ) | phosphorylation enrichment (Fyn) | phosphorylation enrichment (MERTK) | phosphorylation enrichment (FGFR1) | phosphorylation enrichment (Jak2) | phosphorylation enrichment (c-Abl (mouse)) | phosphorylation enrichment (EPHB2) | phosphorylation enrichment (Fes) | phosphorylation enrichment (Hck) | phosphorylation enrichment (FGFR3)
1 | 0.869 | 0.613 | 0.659 | MYRVQYNSSVD [LRFN1_Y458_Q455R] | 0.403 | 0.411 | 0.487 | 0.785 | 0.435 | 0.375 | 0.433 | 0.68 | 0.629 | 0.437 | 0.876 | 0.435 | 0.715
2 | 0.579 | 0.424 | 0.961 | SVTRTYSPALN [TP53_Y126_C124R] | 0.485 | 0.399 | 0.313 | 0.445 | 0.384 | 0.313 | 0.394 | 0.429 | 0.427 | 0.378 | 0.522 | 0.345 | 0.418
3 | 0.751 | 1 | 0.881 | PVQAAYQKVVP [HBB_Y131_A136P] | 0.827 | 0.626 | 0.787 | 0.763 | 0.878 | 0.619 | 0.727 | 0.88 | 0.561 | 0.631 | 0.64 | 0.803 | 0.775
4 | 0.588 | 0.38 | 0.777 | DDEVFYSPLSL [OTC_Y317_R320L] | 11.1 | 5.55 | 0.495 | 2 | 5.08 | 5.35 | 3.14 | 1.28 | 2.96 | 0.598 | 1.2 | 7.22 | 2.76
5 | 0.565 | 0.483 | 0.683 | FDDIAYIRKTL [PIK3CA_Y1021] | 0.411 | 0.449 | 0.469 | 0.75 | 0.514 | 0.474 | 0.456 | 0.835 | 0.62 | 0.481 | 0.878 | 0.469 | 0.496
6 | 0.453 | 0.304 | 0.838 | RTVDVYFGPQM [KIRREL3_Y332_R336Q] | 0.71 | 1.73 | 1.04 | 1.51 | 1.45 | 0.577 | 0.824 | 1.25 | 1.53 | 0.677 | 1.15 | 1.73 | 0.919
7 | 0.812 | 0.665 | 0.997 | NTVDFYDLFGG [PTPN11_Y63_G60V_YF] | 0.953 | 2.56 | 0.576 | 1.06 | 4.46 | 1.23 | 0.458 | 0.926 | 0.576 | 0.618 | 0.951 | 3.05 | 0.644
8 | 0.707 | 6.74 | 1.07 | HNQDGYSYPSR [LDLR_Y845] | 0.738 | 0.661 | 0.55 | 1.25 | 0.836 | 0.913 | 0.614 | 0.831 | 0.823 | 0.584 | 0.826 | 0.618 | 0.886
9 | 0.617 | 0.497 | 0.82 | EEQKKYSNAMK [SCN5A_Y1494_Y1495S] | 0.353 | 0.404 | 0.429 | 0.611 | 0.377 | 0.327 | 0.456 | 0.56 | 0.772 | 0.539 | 0.723 | 0.37 | 0.529

More lines, now with the values behind:

Row | Sequence | SH2 binding enrichment (SHP2-C SH2) | SH2 binding enrichment (c-Src SH2) | SH2 binding enrichment (Grb2 SH2) | phosphorylation enrichment (Fer (mouse)) | phosphorylation enrichment (c-Src) | phosphorylation enrichment (EPHB1) | phosphorylation enrichment (AncSZ) | phosphorylation enrichment (Fyn) | phosphorylation enrichment (MERTK) | phosphorylation enrichment (FGFR1) | phosphorylation enrichment (Jak2) | phosphorylation enrichment (c-Abl (mouse)) | phosphorylation enrichment (EPHB2) | phosphorylation enrichment (Fes) | phosphorylation enrichment (Hck) | phosphorylation enrichment (FGFR3)
10 | QRIYQYIQSRF [DYRK1B_Y273] | 1.58 | 2.05 | 1.26 | 5.21 | 3.17 | 6.1 | 3.1 | 1.68 | 6.41 | 1.25 | 1.82 | 3.62 | 1.63 | 2.48 | 3.87 | 2
11 | YVSLIYTNYEA [GSTP1_Y109_I105V] | 4.37 | 3.42 | 1.18 | 3.36 | 4.34 | 3.04 | 1.84 | 5.04 | 4.74 | 6.43 | 1.32 | 1.87 | 2.87 | 1.36 | 3.62 | 5.46
12 | CQNRFYDAKVR [FKBP6_Y188_R183C] | 0.914 | 0.684 | 0.941 | 0.426 | 0.416 | 0.445 | 0.794 | 0.373 | 0.477 | 0.495 | 0.869 | 0.684 | 0.485 | 0.897 | 0.475 | 0.669
13 | GLRQSYFVEAQ [APCS_Y142_G141S] | 0.726 | 0.681 | 0.686 | 0.378 | 0.453 | 0.532 | 0.717 | 0.457 | 0.543 | 0.612 | 0.596 | 0.48 | 0.491 | 0.825 | 0.505 | 0.697
14 | DGPVNYEEFVQ [CALM2_Y139_Q136P] | 0.656 | 0.418 | 0.848 | 0.601 | 0.532 | 1.27 | 1.17 | 0.482 | 0.474 | 0.514 | 1.18 | 0.748 | 1.08 | 1.12 | 0.529 | 0.725
15 | SNTFLYQLVFD [EXO1_Y284_N279S] | 1.05 | 0.833 | 1.17 | 4.62 | 2.22 | 5.47 | 1.56 | 1.61 | 5.86 | 1.69 | 1.36 | 0.784 | 3.93 | 1.49 | 2.63 | 1.9
16 | LGPDGYSTVDQ [ARVCF_Y901_R906Q] | 1.77 | 36 | 1.21 | 0.833 | 0.848 | 0.876 | 1.63 | 0.982 | 0.707 | 1.04 | 1.72 | 1.31 | 1.22 | 2.87 | 0.9 | 1.21
17 | KRAIGHFSATS [FAM120A_Y327_Y327H_YF] | 0.66 | 0.525 | 0.852 | 0.338 | 0.387 | 0.407 | 0.423 | 0.351 | 0.371 | 0.335 | 0.456 | 0.402 | 0.332 | 0.42 | 0.397 | 0.39

Source: the supplement of paper PMC10065799, “High-throughput profiling of sequence recognition by tyrosine kinases and SH2 domains using bacterial peptide display” (eLife, 2023)
